Tests used:
[1] = target: FplA(20–431) (Fusobacterium nucleatum subsp. nucleatum, UniProt Q8R6F6); format: biochemical, F. nucleatum 25586
[2] = test system: CCCCCCC(=O)Oc1ccc2c(C)cc(=O)oc2c1; test: purified protein, by the assay type
Method: (§1) In detail, FplA was used at 1 nM in the reaction, and substrate (50 mM stock in 100% DMSO) dilutions (0–200 μM) and reactions were carried out in reaction buffer (50 mM Tris, pH 8.5, 50 mM NaCl, 0.025% BOG). All samples, including controls, contained equal concentrations of DMSO (0.4%). Reactions were run at 26 °C for 30 min with 3 s of shaking between continuous fluorescent monitoring (excitation = 360 nm, emission = 449 nm) every 2 min on a SpectraMax M5^e plate reader. Relative fluorescence units measured upon cleavage of substrate ester bonds and release of the acyl chain were converted to the concentration of product (4-methylumbeliferone; 4-Mu) created by establishing a standard curve using pure 4-Mu (Sigma-Aldrich).
(§2) The steady-state kinetic parameters for each substrate were determined using GraphPad Prism version 6 (GraphPad Software, La Jolla, CA) by fitting the initial rate data (n = 2) to the Michaelis–Menten equation, (Eq. 1) v=Vmax⁡[S]/(Km+[S]) to obtain the values reported in Fig. 2 and supplemental Fig. S3.

[3] = test system: CCCC(=O)Oc1ccc2c(C)cc(=O)oc2c1; test: purified protein, by the assay type; details: other: Fig. 4C/D, substrate of FplA(20–431), 1 nM enzyme, pH 8.5, 26 °C
Method: as §1, §2

[4] = test system: CCCCCCCCCCCCCCCC(=O)Oc1ccc2c(C)cc(=O)oc2c1; test: purified protein, by the assay type; details: other: Fig. 4C/D, substrate of FplA(20–431), 1 nM enzyme, pH 8.5, 26 °C
Method: as §1, §2

[5] = other: Fig. 4E, 4-MuH as substrate, construct FplA20-350, pH 8.5, 26.0 °C
[6] = other: Fig. 4E, 4-MuH as substrate, construct FplA60-350, pH 8.5, 26.0 °C
[7] = other: Fig. 4E, 4-MuH as substrate, construct FplA60-431, pH 8.5, 26.0 °C
[8] = other: Fig. 4E, 4-MuH as substrate, construct FplA20-431, pH 8.5, 26.0 °C

Chain of FplA(20–431) (Q8R6F6 20-431 limits assumed): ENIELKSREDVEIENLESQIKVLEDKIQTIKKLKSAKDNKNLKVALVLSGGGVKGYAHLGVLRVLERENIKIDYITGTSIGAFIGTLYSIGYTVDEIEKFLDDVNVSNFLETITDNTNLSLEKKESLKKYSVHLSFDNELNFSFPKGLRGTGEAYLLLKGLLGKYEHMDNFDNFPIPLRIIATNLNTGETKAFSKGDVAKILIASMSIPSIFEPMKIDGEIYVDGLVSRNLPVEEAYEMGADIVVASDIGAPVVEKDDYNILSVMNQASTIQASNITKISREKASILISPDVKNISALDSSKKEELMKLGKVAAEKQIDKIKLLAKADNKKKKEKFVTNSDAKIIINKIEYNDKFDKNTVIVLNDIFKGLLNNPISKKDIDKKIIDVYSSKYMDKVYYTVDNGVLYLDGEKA

CCCCC/C=C\C/C=C\C/C=C\C/C=C\CCCC(=O)C(F)(F)F [ATFMK, arachidonyl trifluoromethyl ketone]
Inhibition of FplA, potency in words [1]: potent inhibitors

FplA20-350 (Fusobacterium nucleatum subsp. nucleatum ATCC 25586)
Km [2, 5]: 23.5 ± 6.5 µM | kcat [2, 5]: 75 ± 6.2 s⁻¹

FplA60-350 (Fusobacterium nucleatum subsp. nucleatum ATCC 25586)
Km [2, 6]: 17.7 ± 8.4 µM | kcat [2, 6]: 2.1 ± 0.3 s⁻¹ | kcat/Km [2, 6]: 120000 ± 60000 M⁻¹ s⁻¹

FplA60-431 (Fusobacterium nucleatum subsp. nucleatum ATCC 25586)
Km [2, 7]: 18.2 ± 7.4 µM | kcat [2, 7]: 2.8 ± 0.3 s⁻¹ | kcat/Km [2, 7]: 150000 ± 60000 M⁻¹ s⁻¹

FplA(20–431) (Fusobacterium nucleatum subsp. nucleatum ATCC 25586)
Km ([2]; other: Fig. 4C/D, substrate of FplA(20–431), 1 nM enzyme, pH 8.5, 26 °C): 19 µM | Km [2, 8]: 19.6 ± 5.0 µM | kcat [2, 8]: 55 ± 4.0 s⁻¹ | kcat/Km [2, 8]: 2.8e+06 ± 700000 M⁻¹ s⁻¹ | Km [3]: 500 µM | Km [4]: 23 µM

From paper PMC5724010 (The Journal of Biological Chemistry, 2017)
